Ki data for 1 substance are collected here from publication PMC6193675.

pKi: −log10 of the molar value.

The target in the assay is VRC01. Put plainly: FACS; competition with YU2 gp120dsm for 3 nM VRC01. Background: In flow cytometry, cells or beads pass a laser one at a time.

The pKi is −log10 of the Ki, conventionally taken in molar units. Read a high pKi as a low Ki. On to Bal gp120, for which the pKi is 8.30.
